Source: PMC7262597 (2020)

B1: Sir2-myc [Drosophila] / GST-Atg8a-WT [Drosophila] (parent complex)
chain 1: MMENYEEIRLGHIRSKDLGNQVPDTTQFYPPTKFDFGAEILASTSTEAEAEAEATATTTEPATSELAGKANGEIKTKTLAAREEQEIGANLEHKTKNPTKSMGEDEDDEEEEEEDDEEEEEDDEEGITGTSNEDEDSSSNCSSSVEPDWKLRWLQREFYTGRVPRQVIASIMPHFATGLAGDTDDSVLWDYLAHLLNEPKRRNKLASVNTFDDVISLVKKSQKIIVLTGAGVSVSCGIPDFRSTNGIYARLAHDFPDLPDPQAMFDINYFKRDPRPFYKFAREIYPGEFQPSPCHRFIKMLETKGKLLRNYTQNIDTLERVAGIQRVIECHGSFSTASCTKCRFKCNADALRADIFAQRIPVCPQCQPNKEQSVDASVAVTEEELRQLVENGIMKPDIVFFGEGLPDEYHTVMATDKDVCDLLIVIGSSLKVRPVAHIPSSIPATVPQILINREQLHHLKFDVELLGDSDVIINQICHRLSDNDDCWRQLCCDESVLTESKELMPPEHSNHHLHHHLLHHRHCSSESERQSQLDTDTQSIKSNSSADYILGSAGTCSDSGFESSTFSCGKRSTAAEAAAIERIKTDILVELNETTALSCDRLGLEGPQTTVESYRHLSIDSSKDSGIEQCDNEATPSYVRPSNLVQETKTVAPSLTPIPQQRGKRQTAAERLQPGTFYSHTNNYSYVFPGAQVFWDNDYSDDDDEEEERSHNRHSDLFGNVGHNYKDDDEDACDLNAVPLSPLLPPSLEAHIVTDIVNGSNEPLPNSSPGQKRTACIIEQQPTPAIETEIPPLKKRRPSEENKQQTQIERSEESPPPGQLAAV
chain 2: MKFQYKEEHAFEKRRAEGDKIRRKYPDRVPVIVEKAPKARIGDLDKKKYLVPSDLTVGQFYFLIRKRIHLRPEDALFFFVNNVIPPTSATMGSLYQEHHEEDYFLYIAYSDENVYGMAKIN

Variants of: B1
Assay: GST pull-down from larval lysate, anti-myc immunoblot, quantified; parent: 1; read off a plot

| Variant | ratio to parent |
| --- | --- |
| chain 2 Y49A | ~0.21 |
